Data reported in patent US20130295073A1, “Use of pegylated recombinant human arginase for treatment of leukemia” (Bio-Cancer Treatment International Ltd., priority 2010, published 2013).

Legend:
[1] = test system: Kasumi-1a, ML2, HL60, K562, NB4, ALL-SIL and Jurkat; test: Combination effect of BCT-100 with Doxorubicin on leukemia cell lines; assay type: cell-based; details: FIG. 7
Description: The combination effect of BCT-100 with Doxorubicin on various leukemia cell lines was studied. The leukemia cell lines tested were myeloid leukemia cell lines Kasumi-1a, ML2, HL60, K562, NB4 and lymphocytic leukemia cell lines ALL-SIL and Jurkat.

HL60 cells [2] = test: Liver, spleen and sternum cytology of HL60-inoculated mice; assay type: in vivo; details: HL60-inoculated NOD/SCIDS mice; BCT-100 50 U/mice i.p. weekly for 4 weeks; doxorubicin 3 mg/kg/day i.p.; FIG. 8
Protocol: (§1) HL60 cells were injected to the tail of NOD/SCIDS mice. Treatment commenced on day 14. The animals were divided into 4 groups. The Doxorubicin group received treatment by doxorubicin, which was administrated at 3 mg/kg/day by intraperitoneal injection 3 times weekly for the first week, thereafter once per week for 4 weeks. The BCT-100 group received treatment by BCT-100, which was administrated at 50 U/mice by intraperitoneal injection weekly for 4 weeks. The combinational group received treatment of both Doxorubicin and BCT-100, administrated as described above. The control group received intraperitoneal injection of saline. […] In the control group, infiltration of leukemia in liver, spleen and sternum was observed.

All-SIL = test: IC50 of BCT-100 in leukemia cell lines; assay type: cell-based; details: T-cell leukemia
Description: (§2) The inhibitory effect of BCT-100 in acute myeloid leukemia cells (Kasumi-1a, ML2, HL60, K562 and NB4) and T-cell leukemia cells (Jurkat, ALL-SIL, HPB-ALL and TALL-1) was studied.

HL60 [3] = test: IC50 of BCT-100 in leukemia cell lines; assay type: cell-based; details: HL60, myeloid leukemia
Description: as §2

HPB-ALL = test: IC50 of BCT-100 in leukemia cell lines; assay type: cell-based; details: T-cell leukemia
Description: as §2

Jurkat = test: IC50 of BCT-100 in leukemia cell lines; assay type: cell-based; details: T-cell leukemia
Description: as §2

K562 = test: IC50 of BCT-100 in leukemia cell lines; assay type: cell-based; details: K562, myeloid leukemia
Description: as §2

Kasumi-1a = test: IC50 of BCT-100 in leukemia cell lines; assay type: cell-based; details: myeloid leukemia
Description: as §2

ML2 = test: IC50 of BCT-100 in leukemia cell lines; assay type: cell-based; details: ML2, myeloid leukemia
Description: as §2

NB4 [4] = test: IC50 of BCT-100 in leukemia cell lines; assay type: cell-based; details: NB4, myeloid leukemia
Description: as §2

TALL-1 = test: IC50 of BCT-100 in leukemia cell lines; assay type: cell-based; details: TALL-1, T-cell leukemia
Description: as §2

HL60 [5] = test: Cell viability in myelocytic leukemia cells; assay type: cell-based; details: HL60, arsenic resistant; FIG. 1a/1b
Description: (§3) The effect of BCT-100 on arsenic sensitive myelocytic cell lines (NB4 and U937) as well as arsenic resistant myelocytic cell lines (HL60 and UF1) was investigated.
(§4) Both the arsenic sensitive and resistant leukemia cells responded to the BCT-100 treatment.

NB4 [6] = test: Cell viability in myelocytic leukemia cells; assay type: cell-based; details: NB4, arsenic sensitive; FIG. 1a/1b
Description: as §3, §4

U937 [7] = test: Cell viability in myelocytic leukemia cells; assay type: cell-based; details: U937, arsenic sensitive; FIG. 1a/1b
Description: as §3, §4

UF1 [8] = test: Cell viability in myelocytic leukemia cells; assay type: cell-based; details: UF1, arsenic resistant; FIG. 1a/1b
Description: as §3, §4

HL60 [9] = test: Induction of apoptosis in leukemia cells; assay type: cell-based; details: HL60, arsenic resistant; FIG. 2
Protocol: (§5) The effect of BCT-100 in inducing apoptosis in both arsenic sensitive (NB4 and U937) and arsenic resistant (HL60 and UF1) leukemia cell lines was tested. […] However, the apoptosis rate was low in HL60 and UF1 cells in the presence of arsenic, as these cell lines are arsenic resistant.

NB4 [10] = test: Induction of apoptosis in leukemia cells; assay type: cell-based; details: NB4, arsenic sensitive; FIG. 2
Protocol: as §5

U937 [11] = test: Induction of apoptosis in leukemia cells; assay type: cell-based; details: U937, arsenic sensitive; FIG. 2
Protocol: as §5

UF1 [12] = test: Induction of apoptosis in leukemia cells; assay type: cell-based; details: UF1, arsenic resistant; FIG. 2
Protocol: as §5

Bax = test: Western blot of Bax expression in HL60; assay type: cell-based; details: 8 hrs after treatment and afterwards, FIG. 3
Protocol: (§6) Expression of Bax and pmTOR was assessed in leukemic cell line HL60 by western blotting with or without BCT-100 treatment using monoclonal antibodies against Bax and pmTOR respectively. The same blot was stripped and probed with anti-actin antibody for loading control. Apoptosis was determined by annexin V labeling. HL60 cells were cultured in medium with or without BCT-100 and the expression of annexin V were analyzed by flow-cytometry at 8, 16, 24, and 36 hrs after BCT-100 treatment.

pmTOR = test: Western blot of pmTOR expression in HL60; assay type: cell-based; details: FIG. 3
Protocol: as §6

HL60 cells [13] = test: Granulocytic differentiation (CD11b expression, FACS); assay type: cell-based; details: HL60, within 96-hour treatment; FIG. 4b
Description: (§7) The induction of granulocytic differentiation in NB4 and HL60 cells was studied. […] Specifically, decrease in nuclear to cytoplasmic ratio, appearance of cytoplasmic granules, chromatin condensation and loss of nucleoli were observed.

NB4 cells = test: as above; assay type: cell-based; details: NB4, within 96-hour treatment; FIG. 4a, 4b
Description: as §7

HL60 cells [14] = test: Reorganization of promyelocytic leukemia nuclear bodies (immunostaining); assay type: cell-based; details: HL60, anti-promyelocytic leukemia immunostaining, vs DMSO control; FIG. 5
[15] = test system: T-cell acute lymphocytic leukemia, acute myeloid leukemia, hepatocellular carcinoma and pancreatic cancer cell lines; test: IC50 of BCT-100 in various cancer cell lines; assay type: cell-based; details: FIG. 6
Description: The IC50 values of BCT-100 in various cancer cell lines were investigated. The cancer cell lines being tested were T-cell acute lymphocytic leukemia, acute myeloid leukemia, hepatocellular carcinoma and pancreatic cancer.

HL-60 = test: Survival of HL60-inoculated mice; assay type: in vivo; details: HL-60-inoculated NOD/SCIDS mice; FIG. 9
Protocol: as §1
The effect of BCT-100 on the survival rate of HL-60-incoluated NOD/SCIDS mice was investigated. […] Thus BCT-100 can be administrated with Doxorubicin to treat leukemia, e.g., myeloid leukemia.

[16] = Arginine depletion in preclinical study
Description: Arginase is a manganese-containing enzyme, catalyzing the conversion of arginine to ornithine and urea, the last step of the Urea Cycle.

With `COc1cccc2c1C(=O)c1c(O)c3c(c(O)c1C2=O)C[C@@](O)(C(=O)CO)C[C@@H]3O[C@H]1C[C@H](N)[C@H](O)[C@H](C)O1` [Doxorubicin, reference compound] the “therapeutic effect on leukemia cell lines” value [1] was “effective in treating leukemia” and the “infiltration of leukemia in liver, spleen and sternum (cytology)” value (HL60 cells [2]) was “Modest infiltration”.

B1: BCT-100: pegylated recombinant human arginase; pegylating agent may be mPEG-SPA; preparation disclosed in U.S. Ser. No. 10/518,223 (protein, UniProt P05089 1-322, looked up)
Arginase-1: MSAKSRTIGIIGAPFSKGQPRGGVEEGPTVLRKAGLLEKLKEQECDVKDYGDLPFADIPNDSPFQIVKNPRSVGKASEQLAGKVAEVKKNGRISLVLGGDHSLAIGSISGHARVHPDLGVIWVDAHTDINTPLTTTSGNLHGQPVSFLLKELKGKIPDVPGFSWVTPCISAKDIVYIGLRDVDPGEHYILKTLGIKYFSMTEVDRLGIGKVMEETLSYLLGRKKRPIHLSFDVDGLDPSFTPATGTPVVGGLTYREGLYITEEIYKTGLLSGLDIMEVNPSLGKTPEEVTRTVNTAVAITLACFGLAREGNHKPIDYLNPPK
modifications: PEGylated (mPEG-SPA)
Molecule B1 has an IC50 (All-SIL) of 120 mU/mL, an IC50 (HL60 [3]) of 55 mU/mL and an IC50 (HPB-ALL) of 110 mU/mL. It also gave an IC50 (Jurkat) of 40 mU/mL, an IC50 (K562) of 25 mU/mL and an IC50 (Kasumi-1a) of 65 mU/mL. For the same molecule, the IC50 (ML2) was 65 mU/mL, the IC50 (NB4 [4]) was 60 mU/mL and the IC50 (TALL-1) was 100 mU/mL. The cell viability (HL60 [5]) was “dropped with increasing amount of BCT-100”, the cell viability (NB4 [6]) was “dropped with increasing amount of BCT-100” and the cell viability (U937 [7]) was “dropped with increasing amount of BCT-100”. For the same molecule, the cell viability (UF1 [8]) was “dropped with increasing amount of BCT-100”, the apoptosis rate (HL60 [9]) was “effective in inducing apoptosis” and the apoptosis rate (NB4 [10]) was “effective in inducing apoptosis”. The apoptosis rate (U937 [11]) was “effective in inducing apoptosis”, the apoptosis rate (UF1 [12]) was “effective in inducing apoptosis” and the Bax level (Bax) was “up-regulated”. For the same molecule, the “protein level of pmTOR” value (pmTOR) was “down-regulated”, the granulocytic differentiation (HL60 cells [13]) was “induced granulocytic differentiation” and the granulocytic differentiation (NB4 cells) was “induced granulocytic differentiation”. The “pattern of promyelocytic leukemia nuclear bodies” value (HL60 cells [14]) was “the microspeckled pattern disappeared and the size and brightness of the promyelocytic leukemia bodies returned to normal”, the “effectiveness in cancer cell lines” value ([15]; T-cell acute lymphocytic leukemia, acute myeloid leukemia, hepatocellular carcinoma and pancreatic cancer) was “effective” and the “times more potent in leukemia and pancreatic cancer than in hepatocellular carcinoma” value ([15]; from IC50 values) was 6-10 times. The “therapeutic effect on leukemia cell lines” value [1] was “effective in treating leukemia”, the “infiltration of leukemia in liver, spleen and sternum (cytology)” value (HL60 cells [2]) was “Modest infiltration” and the “survival rate and survival days” value (HL-60) was “increased as compared to the control group”. The arginine depletion [16] was “efficacious in inducing arginine depletion in dose-dependent manner”.
